T1: murine OX40 (murine, UniProt P47741 20-211, limits assumed)
T1 sequence (looked up): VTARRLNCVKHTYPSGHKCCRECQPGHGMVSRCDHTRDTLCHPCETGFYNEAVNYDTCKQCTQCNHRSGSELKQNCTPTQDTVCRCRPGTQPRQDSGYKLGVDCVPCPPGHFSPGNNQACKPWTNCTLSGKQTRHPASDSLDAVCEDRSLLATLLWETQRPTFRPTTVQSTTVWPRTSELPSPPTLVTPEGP

T2: OX40 chimera 1548: human OX40 with mouse module 3 and domains 4A and 4B (aa 108-167), on FreeStyle 293-F cells (human; mouse, UniProt P47741 104-165)
T2 construct: domain: module 3, 4A and 4B; Limits derived as for 1544
T2 sequence: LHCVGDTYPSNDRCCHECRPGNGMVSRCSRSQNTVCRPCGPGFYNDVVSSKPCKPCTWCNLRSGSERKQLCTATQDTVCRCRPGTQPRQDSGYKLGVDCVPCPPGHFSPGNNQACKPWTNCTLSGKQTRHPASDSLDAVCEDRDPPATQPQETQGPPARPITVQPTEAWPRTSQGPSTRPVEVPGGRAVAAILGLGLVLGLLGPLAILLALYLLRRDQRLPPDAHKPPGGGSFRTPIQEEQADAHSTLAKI


Experiments:
[1] = target: T3, soluble murine CTLA-4 (R&D systems) (murine, UniProt P09793 36-162); experiment: not described
T3 construct: Bought
Procedure: In brief, 96-well flat bottom plate high binding plates (Greiner #655074) were coated with human CTLA-4 (Fitzgerald) incubating overnight at 4° C.
The sample (exemplary CD86 mutant) was pre-incubated at room temperature for 1 hour with soluble biotinylated human CTLA4 (Fitzgerald #30R-CD152) or soluble murine CTLA-4 (R&D systems) at different concentrations (serial dilutions ¼ from 30000 to 0.3 ng/ml).
The mixture was then added to the blocked wells in the ELISA plate. Detection was performed with Streptavidin-HRP (Pierce, #21126) and the plates were subsequently developed using SuperSignal Pico Chemiluminescent substrate (Thermo Scientific, #37069) and detected with Envision reader (Perkin Elmer).

[2] = target: T4, CTLA4-Fc (Fitzgerald, #30R-CD152) (human, UniProt P16410 38-152); experiment: ELISA on coated CTLA4-Fc and CD28-Fc
T4 construct: Bought; also called human CTLA-4 (Fitzgerald); biotinylated-CTLA4; not shown: Fc part of the bought fusion, not described
Procedure: 96-well flat bottom high binding plates (Greiner, #655074) were coated with either CTLA4-Fc (Fitzgerald, #30R-CD152) or CD28-Fc (R&D systems, 342-CD) by incubating overnight at 4° C. […] The plates were washed again and sample or controls (serially diluted ⅕ from 200-0.001 μg/ml) were added to the wells. The samples were incubated for 1 h at room temperature and then washed. Detection antibody, goat-anti-human IgG Fcγ-HRP (Jackson, #109-035-098) was added and the plates were subsequently developed using SuperSignal Pico Chemiluminescent substrate (Thermo Scientific, #37069) and detected with an Envision reader (Perkin Elmer). EC50 values were calculated for both CTLA4 and CD28. The binding ratio (EC50 binding ratio=[EC50 for CD28]÷[EC50 for CTLA-4]) was calculated for each polypeptide and is shown in Table 1.1.

[3] = target: T4, CTLA4-Fc (Fitzgerald, #30R-CD152); experiment: SPR on immobilised CTLA4-Fc and CD28-Fc
Procedure: (§1) Either CTLA4-Fc (Fitzgerald, #30R-CD152) or CD28-Fc (R&D Systems, 342-CD) was immobilized to the Biacore™ sensor chip, CM5, using conventional amine coupling. The CD86 mutant molecules and controls (serially diluted ½ 100-1.5 nM) were analyzed for binding in HBS-P (GE, BR-1003-68) at a flow rate of […]. The association was followed for 3 minutes and the dissociation for 10 minutes. Regeneration was performed twice using 5 mM NaOH for 30 seconds. The kinetic parameters and the affinity constants were calculated using BIAevaluation 4.1 software (Table 1.3).

[4] = target: T4, CTLA4-Fc (Fitzgerald, #30R-CD152); experiment: SPR (Biacore), immobilised CTLA4-Fc
Procedure: as §1

[5] = target: T1, murine OX40; experiment: ELISA
[6] = target: T5, CD40 (Ancell) (UniProt P25942 21-193); experiment: ELISA
T5 construct: also called CD40-Fc (Ancell #504-820); not shown: Fc part, not described

[7] = target: T6, recombinant human CD137-Fc (R&D #838-4B) (human, UniProt Q07011 24-186); experiment: ELISA
T6 construct: Bought; also called Human CD137 (R&D systems); CD137 (R&D Systems); not shown: Fc part, not described

[8] = target: T2, OX40 chimera 1548: human OX40 with …; experiment: flow cytometry, 293-F transfectants
Procedure: The mouse/human chimeras were transiently transfected into FreeStyle 293-F cells (Invitrogen), incubated 48 hours in FreeStyle 293 expression medium (Invitrogen) 37 C, 8% CO₂, 135 rpm. The transfected cells were incubated with human OX40 antibodies, human OX40L (hOX40L, RnD Systems), mouse OX40L (mOX40L, RnD Systems) and controls for 30 min 4° C. and then detected with a-huIgG-PE (Jackson Immunoresearch) 30 min 4° C. Cells were analyzed with FACS Verse (BD Biosciences). Binding to the different chimeric constructs were calculated as relative (mean fluorescence intensity) MFI compared to the binding of the isotype control.

T4 sequence (P16410 38-152 limits assumed): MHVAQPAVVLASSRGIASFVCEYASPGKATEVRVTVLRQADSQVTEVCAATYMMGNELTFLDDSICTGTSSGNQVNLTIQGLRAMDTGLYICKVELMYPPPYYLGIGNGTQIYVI
T5 sequence (P25942 21-193 limits assumed): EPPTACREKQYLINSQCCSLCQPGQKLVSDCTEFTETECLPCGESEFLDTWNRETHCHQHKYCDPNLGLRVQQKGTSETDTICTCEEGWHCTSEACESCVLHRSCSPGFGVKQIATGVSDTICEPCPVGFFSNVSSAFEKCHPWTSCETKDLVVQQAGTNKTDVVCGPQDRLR
T6 sequence (Q07011 24-186 limits assumed): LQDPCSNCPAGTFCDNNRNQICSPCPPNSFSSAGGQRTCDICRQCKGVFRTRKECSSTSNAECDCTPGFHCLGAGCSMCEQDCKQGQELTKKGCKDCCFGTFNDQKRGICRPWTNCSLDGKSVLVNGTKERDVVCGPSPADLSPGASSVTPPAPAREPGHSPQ

Binder	binding result [1]	EC50 binding ratio ([EC50 for CD28]/[EC50 for CTLA-4]) [2]	Kd binding ratio ([Kd for CD28]/[Kd for CTLA-4]) [3]	Kd [4] [nM]	koff [4] [s⁻¹]	kon [4] [M⁻¹ s⁻¹]	binding result [5]	binding result [6]	binding result [7]	relative MFI vs isotype control [8]
CD86 mutant 910 (ligand, Variant of the CD86 extracellular domain) LKIQAYFNETADLPCQFANSQNQSLSELVVFWQDQENLVLNEVYLGKEKFDSVDSKYMGRTSFDSDSWTLRLHNLQIKDKGIYQCIIHHKKPTGMVKIHEMNSELSVLA	binds	7.7	5.1							
CD86 mutant 901 (ligand, Variant of the CD86 extracellular domain) LKIQAYFNETADLPCQFANSQNLTLSELVVFWQDQENLVLNEVYLGKEKFDSVHSKYMGRTSFDSDSWTLRLHNLQIKDKGIYQCVIHHKKPTGMIKIHEMNSELSVLT	binds	17.2	2.7							
CD86 mutant 906 (ligand, Variant of the CD86 extracellular domain) LKIQAYINETADLPCQFANSQNLSLSELVVFWQDQENLVLNEVYLGKERFDSVDSKYMGRTSFDSDSWTLRLHNLQIKDKGFYQCIIHHKKPTGLVKIHEMNSELSVLA	binds	16.2	0.8							
human wild-type CD86 (monomeric soluble extracellular domain) (ligand, also called wild type protein) APLKIQAYFNETADLPCQFANSQNQSLSELVVFWQDQENLVLNEVYLGKEKFDSVHSKYMGRTSFDSDSWTLRLHNLQIKDKGLYQCIIHHKKPTGMIRIHQMNSELSVLA		3.4	1.6	50	0.023	460000				
CD86 mutant 1038 (ligand, Variant of the CD86 extracellular domain) APLKIQAYFNETADLPCQFANSQNLSLSELVVFWQDQENLVLNEVYLGKEKFDSVDSKYMGRTSFDSDSWTLRLHNLQIKDKGIYQCIIHHKKPTGMVKIHEMNSELSVLA	binds			12	0.012	1e+06				
CD86 mutant 1041 (ligand, Variant of the CD86 extracellular domain) APLKIQAYLNETADLPCQFANSQNLSLSELVVFWQDQENLVLNEVYLGKEKFDSVDSKYMGRTSFDSDSWTLRLHNLQIKDKGIYQCIIHHKKPTGLVKIHEMNSELSVLA	binds			12	0.0084	700000				
CD86 mutant 1042 (ligand, Variant of the CD86 extracellular domain) APLKIQAYFNETADLPCQFANSQNLSLSELVVFWQDQENLVLNEVYLGKEIFDSVSSKYMGRTSFDSDSWTLRLHNLQIKDKGIYQCIIHHKKPSGMVKIHQMDSELSVLA	binds			25	0.011	440000				
CD86 mutant H79A (Peach et al.) (ligand, also called Prior Art) APLKIQAYFNETADLPCQFANSQNQSLSELVVFWQDQENLVLNEVYLGKEKFDSVASKYMGRTSFDSDSWTLRLHNLQIKDKGLYQCIIHHKKPTGMIRIHQMNSELSVLA				63	0.022	340000				
CD86 mutant 1043 (ligand, Variant of the CD86 extracellular domain) APLKIQAYFNETADLPCQFANSQNLSLSELVVFWQDQENLVLNEVYLGKEKFDSVDSKYMGRTSFDSDSWTLRLHNLQIKDKGIYQCIIHHKKPTGMIKIHEMNSELSVLA	binds			10	0.011	1.1e+06				
CD86 mutant 1047 (ligand, Variant of the CD86 extracellular domain) APLKIQAYFNETADLPCQFANSQNLSLSELVVFWQDQENLVLNEVYLGKEKFDSVDSKYMGRTSFDSDSWTLRLHNLQIKDKGIYQCIIHHKKPTGLVKIHEMNSELSVLA	binds			10	0.0084	850000				
CD86 mutant 1044 (ligand, Variant of the CD86 extracellular domain) APLKIQAYFNETADLPCQFANSQNLTLSELVVFWQDQENLVLNEVYLGKEKFDSVSSKYMGRTSFDSDSWTLRLHNLQIKDKGIYQCIIHHKKPTGMIKIHEMSSELSVLA	binds			8	0.0094	1.1e+06				
CD86 mutant 1046 (ligand, Variant of the CD86 extracellular domain) APLKIQAYFNETADLPCQFANSQNQSLSELVVFWQDQENLVLNEVYLGKEKFDSVDSKYMGRTSFDSDSWTLRLHNLQIEDKGIYQCIIHHKKPSGMVKIHQMDSELSVLA	binds			6	0.008	1.4e+06				

More lines, now with the values ahead:

binding result [1]	EC50 binding ratio ([EC50 for CD28]/[EC50 for CTLA-4]) [2]	Kd binding ratio ([Kd for CD28]/[Kd for CTLA-4]) [3]	Kd [4] [nM]	koff [4] [s⁻¹]	kon [4] [M⁻¹ s⁻¹]	binding result [5]	binding result [6]	binding result [7]	relative MFI vs isotype control [8]	Binder
binds	3.5									CD86 mutant 900 (ligand, Variant of the CD86 extracellular domain) LKIQAYFNETADLPCQFANSQNQSLSELVVFWQDQENLVLNEVYLGKEKFDSVDSKYMGRTSFDSDSWTLRLHNLQIKDKGIYQCVIHHKKPSGLVKIHEMNSELSVLA
binds	12.2	6.8								CD86 mutant 904 (ligand, Variant of the CD86 extracellular domain) LKIQAYFNETADLPCQFANSQNQSLSELIVFWQDQENLVLNEVYLGKERFDAVDSKYMGRTSFDSDSWTLRLHNLQIKDKGIYQCIIHHKKPSGMVKIHQMDSELSVLA
binds			8	0.0085	1e+06					CD86 mutant 1039 (ligand, Variant of the CD86 extracellular domain) APLKIQAYFNETADLPCQFANSQNLSLSELVVFWQDQENLVLNEVYLGKEKFDSVSSKYMGRTSFDSDSWTLRLHNLQIKDKGIYQCIIHHKKPSGMVKIHQMDSELSVLA
binds			9	0.0083	940000					CD86 mutant 1045 (ligand, Variant of the CD86 extracellular domain) APLKIQAYFNETADLPCQFANSQNLTLSELVVFWQDQENLVLNEVYLGKEKFDSVDSKYMGRTSFDSDSWTLRLHNLQIKDKGLYQCIIHHKKPTGLVKIHEMNSELSVLA
						no binding	no binding	no binding	1.1	anti-OX40 antibody 1490/1135 (antibody, V domains shown, Tested as IgG) VH: EVQLLESGGGLVQPGGSLRLSCAASGFTFSSYAMSWVRQAPGKGLEWVSGISYYGGYTYYADSVKGRFTISRDNSKNTLYLQMNSLRAEDTAVYYCARYYPHHYIDYWGQGTLVTVSS VL: not shown

— patent US20210238298A1 (ALLIGATOR BIOSCIENCE, published 2021)
